Data set [1] relates to constipation predominant IBS (IBS-C). Particulars: cited from earlier work.
The conditions of data set [2]: in solution; cited from earlier work.
The subject of data set [3] is irritable bowel syndrome (IBS). Particulars: clinical trials; cited from earlier work.
Data set [4] can be described thus: High performance size-exclusion chromatography (HP-SEC): monomer, HMWS, LMWS. Conditions: method test. It is filed as physicochemical. How it is done:
The ability of the HP-SEC method to detect changes in the monomer, HMWS and LMWS content was tested with stressed samples. […] Multiple freeze-thaw cycles had no influence on the SEC profile.

Turning to “H-HVEGTFTSDVSSYLEGQAAKEFIAWLVKGRG-OH [ROSE-010]”, the colonic transit entry in data set [1] (at 48 h with 30 and 100 μg) is on record as “accelerated colonic transit”. Further, the “gastric emptying of solids” value in data set [1] is “delayed gastric emptying of solids”. The noncovalent aggregates entry in data set [2] is listed as “forms noncovalent aggregates in solution”. Besides, in data set [3], the “acute exacerbations of irritable bowel syndrome (IBS)” value is listed as “reduce acute exacerbations of irritable bowel syndrome (IBS)”. In addition, the “overall signal intensity (HP-SEC)” value in data set [4] (mechanical stress) is “substantial loss”. The SEC profile result in data set [4] (multiple freeze-thaw cycles) is “no influence”. Besides, in data set [4] (one week storage at 40° C.), the HMWS content result is given as “slight increase”.

(Values after patent US11058748B2, “Stable liquid formulations of glucagon-like peptide 1 or analogues thereof” (Rose Pharma LLC, priority 2019, dated 2021).)
